{"source": "patent US7309578B2", "about": "“Therapeutic treatment of chronic obstructive pulmonary disease” (The Trustees of Columbia University in the City of New York, priority 2000, dated 2007)", "molecules": {"B1": {"name": "sFrp1: mouse secreted frizzled-related protein 1, expressed from full length cDNA in a pCMS-EGFP vector transfected into cells (protein, UniProt Q8C4U3 1-314, looked up)", "chain": "MGVGRSARGRGGAASGVLLALAAALLAAGSASEYDYVSFQSDIGSYQSGRFYTKPPQCVDIPVDLRLCHNVGYKKMVLPNLLEHETMAEVKQQASSWVPLLNKNCHMGTQVFLCSLFAPVCLDRPIYPCRWLCEAVRDSCEPVMQFFGFYWPEMLKCDKFPEGDVCIAMTPPNTTEASKPQGTTVCPPCDNELKSEAIIEHLCASEFALRMKIKEVKKENGDKKIVPKKKKPLKLGPIKKKELKRLVLFLKNGADCPCHQLDNLSHNFLIMGRKVKSQYLLTAIHKWDKKNKEFKNFMKRMKNHECPTFQSVFK", "modifications": "full-length", "notes": "mouse secreted frizzled-related protein 1, expressed from full length cDNA in a pCMS-EGFP vector transfected into cells"}}, "key": {"[1]": {"tested_on": "small airway epithelial cells, lung microvascular endothelial cells, lung fibroblasts", "assay": "Transfection of lung cells with a sFrp1 expression vector, Annexin-V-Biotin assay", "type": "cell-based, human", "settings": "for apoptosis-inducing activity on transfection: normal human primary lung epithelial, endothelial and fibroblast cells transfected with sFrp1-Gfp expression vector", "excerpt": "(§1) Transfection of Lung Cells with a sFrp1 Expression Vector: The mouse sFrp1 full length cDNA was generously provided by Drs. Jeremy Nathans and Amir Rattner, John Hopkins University, Baltimore, and subcloned into a pCMS-EGFP vector (Clontech, Palo Alto, Calif.). A gene of sFrp1w&s inserted into the multiple cloning site at EcoRI and Sail sites between the cytomegalovirus early promoter and SV40 polyadenilation signals, which direct proper processing of the 3′ end of sFrp1 mRNA. The vector also has a Gfp (green fluorescent protein) gene located in downstream of the sFrp1-SV40 polyadenilation signals and ligated between the SV40 enhancer/promoter sequence and a polyadenylation signal from the bovine growth hormone gene. This vector construct allows transcriptions of sFrp1 and Gfp as separate proteins in transfected cells. Normal human primary cultured cells of small airway epithelial cells (SAEC 6043), lung microvascular endothelial cells (HMVEC L 6521-3), and lung fibroblasts (NHLF 5975) were obtained from BioWhittaker (Walkersville, Md.) and cultured in proper media containing 10% fetal bovine serum. Cells were plated 2 days before transfection in 4-well LabTek II chamber (Nalge Nunc International, Naperville, Ill.) at 2×10^4 cells/chamber and incubated at 37*C in 5% COj incubator. The sFrp1-Gjp expression vector or Gfp vector without sFrp gene (0.8 ujj) were transfected into cells using Lipofectaniine PLUS according to the manufacture's instruction (Gibco BRL). For Annexin-V-Biotin assay (Roche Diagnostics GmbH, Manheim, Germany), ceils were harvested at 72, 48, 24, 12 or 6 h after transfection and the reaction was detected by ExtraAvidin-Cy3 (Sigma). For caspase 3 activation assay, cells were fixed in 3% paraformaldehyde in PBS after 24 or 48 h of transfection and incubated with anti-human active caspase 3 antibody made by rabbit (x100, clone 9661. Cell Signaling Technology, Beverly, Mass.). Biotinylated goat IgG to rabbit IgG (Vector) and ExtraAvidin-Cy3 (Sigma) were used for detection of binding of a primary antibody."}, "[2]": {"tested_on": "small airway epithelial cells, lung microvascular endothelial cells, lung fibroblasts", "assay": "Transfection of lung cells with a sFrp1 expression vector, caspase 3 activation assay (immunostaining)", "type": "cell-based, human", "settings": "24 or 48 h after transfection", "excerpt": "as §1, with “Cells were plated 2 days before transfection in 4-well LabTek II chamber (Nalge Nunc International, Naperville, Ill.) at 2×10^4 cells/chamber and incubated at 37*C in 5% COj incubator. The sFrp1-Gjp expression vector or Gfp vector without sFrp gene (0.8 ujj) were transfected into cells using Lipofectaniine PLUS according to the manufacture's instruction (Gibco BRL).” left out, “For caspase 3 activation assay, cells were fixed in 3% paraformaldehyde in PBS after 24 or 48 h of transfection and incubated with anti-human active caspase 3 antibody made by rabbit (x100, clone 9661. Cell Signaling Technology, Beverly, Mass.). Biotinylated goat IgG to rabbit IgG (Vector) and ExtraAvidin-Cy3 (Sigma) were used for detection of binding of a primary antibody.” left out"}}}
{"molecule": "B1", "values": [{"measurement": "phosphatidylserine exposure to the outer cell membrane (annexin V assay)", "setting": "[1]; 6-72 h after transfection, data not shown", "result": "time- and dose-dependency of cell death to sFrp1 expression"}, {"measurement": "apoptosis-inducing activity on transfection", "setting": "[1]", "result": "apoptosis-inducing activity of sFrp1 without preference of cell-type examined"}, {"measurement": "apoptosis-inducing activity on transfection", "setting": "[1]; listed as sFRP-1", "result": "leads to apoptosis in lung epithelial cells, endothelial cells and fibroblasts"}, {"measurement": "active caspase 3 immunostaining", "setting": "[2]", "result": "presence of acive caspase 3 in and surrounding cells transfected sFrp1"}]}
